{
  "source": "patent US20080254508",
  "molecules": {"B1": {"name": "ZmaN (protein)", "chain": "MSKEIKCVVWDLDCTIWDGVLLESGTVTLKPGIYEIICELDRRGILQSVASKNNYEDAIAKLREFGIEEYFLYPEIHWNSKSSSIEKIRKNLNIGIDTFAFIDDQPFELEEVQSVHNDILCIHVNEYKSLLDLPRLQPKRITEDSGRRRLMYLENLKRTKDEEEYEGPKEEFLASLGMNFVISEAREEDLQRAEELTVRTNQLNSTGITYDYDELNYYRNHPDYLLLVCELSDKYGSYGKIGLTLVKRTEEADCLKLLLMSCRVMSRGVGTILLTYLMERTKQAGKRFLAEFRQTDRNRMMFVTYRLAGFKETSNENGILILEHNLENINPYPHYINIQFPETPTDVDRGEVEICNKQL"}},
  "key": {"holo-ZmaD [1]": {"system": "holo-ZmaD"}, "holo-ZmaH [2]": {"system": "holo-ZmaH"}, "holo-ZmaH [3]": {"target": "holo-ZmaH", "remark": "listed apart in the source"}, "holo-ZmaD [4]": {"target": "T1, holo-ZmaD", "T1 chain": "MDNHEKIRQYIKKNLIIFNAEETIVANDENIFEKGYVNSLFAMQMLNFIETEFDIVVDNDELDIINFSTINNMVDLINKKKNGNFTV"}},
  "data": [
    {"molecule": "ZmaJ", "values": [
      {"measurement": "aminoacylation of holo-ZmaD (holo-ZmaD replaced holo-ZmaH)", "setting": "holo-ZmaD [1]", "result": "ZmaJ was not able to aminoacylate holo-ZmaD"},
      {"measurement": "formation of seryl-ZmaH (HPLC elution shift and MS mass of holo-ZmaH)", "setting": "holo-ZmaH [2]", "result": "Incubation of holo-ZmaH with ZmaJ, L-Ser, and ATP resulted in a change in the holo-ZmaH elution time from the HPLC, and the mass of the purified product was consistent with the formation of seryl-ZmaH"}
    ]},
    {"molecule": "B1", "values": [
      {"measurement": "formation of glyceryl-ACP (control reaction in which holo-ZmaH replaced holo-ZmaD)", "setting": "holo-ZmaH [3]", "result": "holo-ZmaH was not a substrate for ZmaN-catalyzed formation of glyceryl-ACP"},
      {"measurement": "formation of glyceryl-ZmaD (HPLC elution shift and MALDI-TOF MS mass shift of holo-ZmaD)", "setting": "holo-ZmaD [4]", "result": "The mass of holo-ZmaD had shifted to be consistent with the formation of glyceryl-ZmaD"},
      {"measurement": "rate of holo-ZmaD modification, with 3-PGPK", "setting": "holo-ZmaD [4]", "result": 1.44, "unit": "nmol min-1 with 3-PGPK"},
      {"measurement": "rate of holo-ZmaD modification, without 3-PGPK", "setting": "holo-ZmaD [4]", "result": 0.08, "unit": "nmol min-1 without 3-PGPK"}
    ]}
  ]
}
